# Biological target: receptors on glutaraldehyde-fixed HeLa cells
# Test: competition ligand assay on fixed HeLa cells; 100 µg E. coli lysate (F11.2 cDNA); competitor: ^35 S-labeled trichomonad AP65; densitometry of fluorograms
substance,measurement,value
recombinant AP65-1 adhesin expressed in E. coli from cDNA clone F11.2 (ligand),percent decrease of parasite AP65 binding,55%

# Source: patent US5922563
